Reference: IntAct's records for PubMed 20485439

B1: Eukaryotic translation initiation factor 5 (Saccharomyces cerevisiae), P38431 (parent)
chain: MSINICRDNHDPFYRYKMPPIQAKVEGRGNGIKTAVLNVADISHALNRPAPYIVKYFGFELGAQTSISVDKDRYLVNGVHEPAKLQDVLDGFINKFVLCGSCKNPETEIIITKDNDLVRDCKACGKRTPMDLRHKLSSFILKNPPDSVSGSKKKKKAATASANVRGGGLSISDIAQGKSQNAPSDGTGSSTPQHHDEDEDELSRQIKAAASTLEDIEVKDDEWAVDMSEEAIRARAKELEVNSELTQLDEYGEWILEQAGEDKENLPSDVELYKKAAELDVLNDPKIGCVLAQCLFDEDIVNEIAEHNAFFTKILVTPEYEKNFMGGIERFLGLEHKDLIPLLPKILVQLYNNDIISEEEIMRFGTKSSKKFVPKEVSKKVRRAAKPFITWLETAESDDDEEDDE
partner: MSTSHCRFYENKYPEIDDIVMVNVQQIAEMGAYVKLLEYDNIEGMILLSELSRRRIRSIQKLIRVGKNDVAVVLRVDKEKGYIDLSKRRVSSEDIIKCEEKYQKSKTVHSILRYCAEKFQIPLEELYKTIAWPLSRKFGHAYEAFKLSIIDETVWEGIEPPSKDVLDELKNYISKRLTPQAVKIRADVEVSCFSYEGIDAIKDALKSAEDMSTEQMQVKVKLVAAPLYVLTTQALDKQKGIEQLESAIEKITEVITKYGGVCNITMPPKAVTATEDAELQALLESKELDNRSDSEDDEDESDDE
B2: Eukaryotic translation initiation factor 5 (Saccharomyces cerevisiae), P38431 (parent)
chain: B1 chain

Variants of: B1
Settings: with if2a_yeast SUI2, P20459

effect of a mutation on the interaction | Variant
decreasing interaction | MSINICRDNHDPFYRYKMPPIQAKVEGRGNGIKTAVLNVADISHALNRPAPYIVKYFGFELGAQTSISVDKDRYLVNGVHEPAKLQDVLDGFINKFVLCGSCKNPETEIIITKDNDLVRDCKACGKRTPMDLRHKLSSFILKNPPDSVSGSKKKKKAATASANVRGGGLSISDIAQGKSQNAPSDGTGSSTPQHHDEDEDELSRQIKAAASTLEDIEVKDDEWAVDMSEEAIRARAKELEVNSELTQLDEYGEWILEQAGEDKENLPSDVELYKKAAELDVLNDPKIGCVLAQCLFDEDIVNEIAEHNAFFTKILVTPEYEKNFMGGIERFLGLEHKDLIPLLPKILVQLYNNDIISEEEIMRFGTKSSKKFVPKEVSKKVRRAAKPFITFLETAESDDDEEDDE [W391F]

Variants of: B2
Settings: with if2g_yeast GCD11, P32481
Chain of if2g_yeast GCD11, P32481 (P32481 whole entry): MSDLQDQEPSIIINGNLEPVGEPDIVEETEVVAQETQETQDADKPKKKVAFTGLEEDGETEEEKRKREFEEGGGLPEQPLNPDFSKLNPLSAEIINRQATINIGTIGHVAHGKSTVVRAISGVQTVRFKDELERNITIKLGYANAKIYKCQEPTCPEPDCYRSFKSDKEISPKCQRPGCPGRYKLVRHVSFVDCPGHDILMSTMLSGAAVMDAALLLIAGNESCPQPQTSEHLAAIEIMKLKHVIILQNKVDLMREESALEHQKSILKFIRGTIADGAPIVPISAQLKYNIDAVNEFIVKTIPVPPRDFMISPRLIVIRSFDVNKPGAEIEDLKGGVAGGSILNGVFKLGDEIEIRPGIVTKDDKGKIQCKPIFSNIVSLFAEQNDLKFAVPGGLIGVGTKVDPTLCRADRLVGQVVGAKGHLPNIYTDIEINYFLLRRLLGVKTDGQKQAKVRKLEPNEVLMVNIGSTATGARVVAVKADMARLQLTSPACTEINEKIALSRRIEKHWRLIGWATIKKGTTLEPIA

effect of a mutation on the interaction | Variant
decreasing interaction | MSINICRDNHDPFYRYKMPPIQAKVEGRGNGIKTAVLNVADISHALNRPAPYIVKYFGFELGAQTSISVDKDRYLVNGVHEPAKLQDVLDGFINKFVLCGSCKNPETEIIITKDNDLVRDCKACGKRTPMDLRHKLSSFILKNPPDSVSGSKKKKKAATASANVRGGGLSISDIAQGKSQNAPSDGTGSSTPQHHDEDEDELSRQIKAAASTLEDIEVKDDEWAVDMSEEAIRARAKELEVNSELTQLDEYGEWILEQAGEDKENLPSDVELYKKAAELDVLNDPKIGCVLAQCLFDEDIVNEIAEHNAFFTKILVTPEYEKNFMGGIERFLGLEHKDLIPLLPKILVQLYNNDIISEEEIMRFGTKSSKKFVPKEVSKKVRRAAKPFITFLETAESDDDEEDDE [W391F]
